Measurements reported in patent US20180334494A1 (UNIVERSITY OF VIRGINIA PATENT FOUNDATION, published 2018).
Substitutions are numbered along the chain they refer to.

B1: Fab 6 (Fab, V domains shown)
VH: EVQLVESGGGLVQPGGSLRLSCAASGFNVYYYYIHWVRQAPGKGLEWVASISPYYGYTSSYADSVKGRFTISADTSKNTAYLQMNSLRAEDTAVYYCARWSYDQSMSYKSGMDYWGQGTLVTVSS
VL: DIQMTQSPSSLSASVGDRVTITCRASQSVSSAVAWYQQKPGKAPKLLIYSASSLYSGVPSRFSGSRSGTDFTLTISSLQPEDFATYYCQQYSYSLVTFGQGTKVEIKR
B2: Fab 20 (Fab, V domains shown)
VH: EVQLVESGGGLVQPGGSLRLSCAASGFNISYSSIHWVRQAPGKGLEWVASIYSYSGYTSYADSVKGRFTISADTSKNTAYLQMNSLRAEDTAVYYCARSYWYHVGSWHYTGMDYWGQGTLVTVSS
VL: B1 VL with Y91S, Y93S, V96I

Molecular target: T1, C-terminal domain of Zaire Ebola virus Nucleoprotein (NP^Ct) (Zaire Ebola virus, UniProt P18272 641-739)
T1 construct: also called Zaire NP^Ct; Zaire EBOV NP^Ct
T1 sequence (P18272 641-739, tags left off): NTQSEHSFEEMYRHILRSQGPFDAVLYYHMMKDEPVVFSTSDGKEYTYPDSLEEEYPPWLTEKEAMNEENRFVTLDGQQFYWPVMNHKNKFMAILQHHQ
Assay: ITC

Binder	Kd [nM]
B1	~5
B2	~5
